Article PMC9617004, “Cloning and characterization of thermophilic endoglucanase and its application in the transformation of ginsenosides” (AMB Express, 2022)

Columns and labels:
Assay in all cases: HPLC of ginsenoside conversion, Michaelis-Menten
Assay type in all cases: biochemical, Fervidobacterium pennivorans
Conditions in all cases: 50 mM phosphate-citrate, pH 6.0, 95 °C, substrate range stated as 0.5 to 10.0 mM (printed unit µM may be mM)
[1] = substrate: CC(C)=CCC[C@](C)(O[C@@H]1O[C@H](CO)[C@@H](O)[C@H](O)[C@H]1O)[C@H]1CC[C@]2(C)[C@@H]1[C@H](O)C[C@@H]1[C@@]3(C)CC[C@H](O[C@@H]4O[C@H](CO)[C@@H](O)[C@H](O)[C@H]4O[C@@H]4O[C@H](CO)[C@@H](O)[C@H](O)[C@H]4O)C(C)(C)[C@@H]3CC[C@]12C
Excerpt: (§1) HPLC of ginsenoside conversion, Michaelis-Menten on BcelFp

[2] = substrate: CC(C)=CCC[C@](C)(O[C@@H]1O[C@H](CO[C@@H]2O[C@H](CO)[C@@H](O)[C@H](O)[C@H]2O)[C@@H](O)[C@H](O)[C@H]1O)[C@H]1CC[C@]2(C)[C@@H]1[C@H](O)C[C@@H]1[C@@]3(C)CC[C@H](O[C@@H]4O[C@H](CO)[C@@H](O)[C@H](O)[C@H]4O[C@@H]4O[C@H](CO)[C@@H](O)[C@H](O)[C@H]4O)C(C)(C)[C@@H]3CC[C@]12C
Excerpt: as §1

[3] = substrate: [H][C@@]1(O[C@@H]2[C@@H](O)[C@H](O)[C@@H](CO)O[C@@]2([H])O[C@H]2CC[C@]3(C)[C@@]4([H])C[C@@H](O)[C@]5([H])[C@@]([H])([C@](C)(CCC=C(C)C)O[C@@H]6O[C@H](CO[C@@H]7OC[C@H](O)[C@H](O)[C@H]7O)[C@@H](O)[C@H](O)[C@H]6O)CC[C@@]5(C)[C@]4(C)CC[C@@]3([H])C2(C)C)O[C@H](CO)[C@@H](O)[C@H](O)[C@H]1O
Excerpt: as §1

B1: BcelFp (Fervidobacterium pennivorans DSM 9078) (protein)
chain: MDQSVAESDSNSALEYNKIIGKGVNIGNALEAPFEGAWGVRIEDEYFEIIKKRGFDSVRIPIRWSAHISEKPPYDIDRNFLERVKHVVDRALENNLTVIINTHHFEELYQEPDKYGNVLVEIWRQIAKFFKDYPENLFFEIYNEPAQNLTAEKWNELYPKVLKVIRESNPTRIVIIDAPNWAHYSAVRSLKLVNDKRIIVSFHYYEPFNFTHQGAEWVNPTPPVGVKWNGEEWEINQIRSHFKYVSDWAKQNKVPIFLGEFGAYSKADMDSRVKWTESVRKMAEEFGFSYAYWEFCAGFGIYDRWSQNWIEPLATAVVGESKE
notes: 323 residues (969 bp), N-terminal His-tag, pET28a BamHI/XhoI, E. coli BL21-CodonPlus(DE3)-RIL, Ni-NTA; calculated 37,892 Da, about 38 kDa by SDS-PAGE; forward primer starts … (MDQSVA)
With B1 the Vmax [1] was 156 µM/min, the kcat/Km [1] was 27900 M⁻¹ s⁻¹ and the Km ([1]; unit of the source corrected) was 670 µM. The Vmax [2] was 382 µM/min, the kcat/Km [2] was 12500 M⁻¹ s⁻¹ and the Km ([2]; unit of the source corrected) was 3660 µM. For the same protein, the Vmax [3] was 315 µM/min, the kcat/Km [3] was 9390 M⁻¹ s⁻¹ and the Km ([3]; unit of the source corrected) was 4020 µM.
